From patent US20200123228A1 come the findings set out here.

Where no end group is shown, it is not given here.

This experiment deals with bovine collagen (Symatese), polymerized gel (bovine). Nature of the experiment: retention on polymerized bovine collagen gel, antibody loaded at 10 µg/mL, released antibody measured by ELISA.

B1: PlGF-2123-144-αPD-L1 (clone 10F.9G2) (antibody, part only; not given: anti-PD-L1 antibody, part only)
peptide: RRRPKGRGKRRREKQRPTDCHL
modifications: not fully specified (residue 20); also: antibody conjugate, average 6 peptides per antibody
B1: the % of bound antibody released by plasmin digestion after buffer changes was 47.1%.
